Earlier results in patent publication US20180022822A1, “NOVEL ANTI-FIBROBLAST ACTIVATION PROTEIN (FAP) BINDING AGENTS AND USES THEREOF” (Mabimmune Diagnostics AG, priority 2016, published 2018).

Experiments:
[1] = in vivo
[2] = pH 7.8

| Molecule | patients with change in pharmacokinetics and reduced tumor uptake ([1]; human) | patients who developed human-anti-human antibodies (HAHA) [1] | stability of inhibitory activity [2] |
| --- | --- | --- | --- |
| Sibrotuzumab: humanized version of the F19 antibody that specifically binds to human FAP | 4 of 26 | 8 of 26 | – |
| CC(C)[C@H](N)C(=O)N1CCC[C@H]1B(O)O [Talabostat, Val-boroPro] | – | – | rapidly loses inhibitory activity |
